Measurements published in article PMC4159696.

Columns and labels:
[1] = target: NapD with an N-terminal hexa His-tag (NapD^NHis) (Escherichia coli) (UniProt P0A9I5); assay: SAXS; purified NapD^NHis/NapA complex, P12 BioSAXS beamline (PETRA III), 7 °C
[2] = target: NapD with an N-terminal hexa His-tag (NapD^NHis) (Escherichia coli) (UniProt P0A9I5); assay: AUC; sedimentation equilibrium, 4 °C, about 100 kDa complex (fraction 80 of SEC), 0.5 to 1.0 mg/mL, interference and absorbance optics at 260, 280 and 300 nm

UniProt P0A9I5, sequence (P0A9I5 whole entry): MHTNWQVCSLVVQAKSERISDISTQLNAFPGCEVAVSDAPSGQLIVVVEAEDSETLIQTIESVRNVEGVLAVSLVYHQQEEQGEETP

stoichiometry N [1]: 1
stoichiometry N [2]: 1
Substance: full-length NapA precursor protein (from UniProt P33937 37-828) (natural protein)
